Assay results as given in publication PMC9128377.
Where two headings read alike, the source gives them in different places.

Assays:
Test in all cases: fluorescence anisotropy
U2AF2 12L G297D [1] = biological target: T1, U2AF2 12L G297D (UniProt P26368 141-342, G297D)
U2AF2 12L (RRM1-RRM2) [2] = biological target: T2, U2AF2 12L (RRM1-RRM2) (UniProt P26368 141-342)
U2AF2 12L G297D [3] = biological target: T1, U2AF2 12L G297D; remark: listed apart in the source
U2AF2 12L R227N = U2AF2 12L R227N (UniProt P26368 141-342, R227N)
U2AF2 12L R227N, sequence (P26368 141-342 R227N): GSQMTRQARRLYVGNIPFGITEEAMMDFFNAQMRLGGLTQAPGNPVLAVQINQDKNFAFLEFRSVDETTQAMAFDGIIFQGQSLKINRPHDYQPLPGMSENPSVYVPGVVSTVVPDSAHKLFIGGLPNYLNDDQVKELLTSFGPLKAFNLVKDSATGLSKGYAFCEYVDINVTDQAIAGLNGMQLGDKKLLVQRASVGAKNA

U2AF2 12L K225N = U2AF2 12L K225N (UniProt P26368 141-342, K225N)
U2AF2 12L K225N, sequence (P26368 141-342 K225N): as the sequence (P26368 141-342 R227N) above, with K85N, N87R counted along it

U2AF2 12L (RRM1-RRM2) [4] = biological target: T2, U2AF2 12L (RRM1-RRM2); remark: listed apart in the source
U2AF2 12L (RRM1-RRM2) [5] = biological target: T2, U2AF2 12L (RRM1-RRM2); remark: listed apart in the source

T1 sequence (P26368 141-342 G297D): as the sequence (P26368 141-342 R227N) above, with N87R, G157D counted along it
T2 sequence (P26368 141-342): as the sequence (P26368 141-342 R227N) above, with N87R counted along it

| Binder | binding signal (U2AF2 12L G297D [3]) [fold penalty] | binding signal (U2AF2 12L R227N) [fold penalty] | binding signal (U2AF2 12L K225N) [fold penalty] | binding signal (U2AF2 12L (RRM1-RRM2) [4]) [fold Kd increase vs N5] | further results |
| --- | --- | --- | --- | --- | --- |
| UUUUCUUUU (ssRNA) [U9 C5] | – | – | – | – | binding signal (U2AF2 12L G297D [1]): ~2 fold penalty; binding result (U2AF2 12L (RRM1-RRM2) [2]): binds |
| UUUUAUUUU (ssRNA) [U9 A5] | ~2 | > 5 | > 5 | – | – |
| UUUUUGUUU (ssRNA) [U9 G6] | – | – | – | ~3 | – |
| UUUGUUUUU (ssRNA) [U9 G4] | – | – | – | ~3 | – |
| UUUUGUUUU (ssRNA) [U9 G5] | ~2 | > 5 | > 5 | – | binding signal (U2AF2 12L (RRM1-RRM2) [5]): < 2 fold Kd increase vs N5 |
